Test [1] addresses GST-ErpQ (Borrelia burgdorferi strain B31). The experiment in a line: SPR.
Test [2] deals with GST-ErpB (Borrelia burgdorferi strain B31). The experiment in a line: SPR.
For test [3], the target named is C1s enzyme (activated form of human C1s) (human) (UniProt P09871). The experiment in a line: ELISA.
The target of test [4] is C1r enzyme (activated form of human C1r) (human) (UniProt P00736). The experiment in a line: ELISA.
The target of test [5] is human C1 complex (C1qC1r2C1s2) (human) (UniProt P02745). The experiment in a line: ELISA.
Sequence of human C1 complex (C1qC1r2C1s2) (human) (P02745 whole entry, looked up, one chain of several): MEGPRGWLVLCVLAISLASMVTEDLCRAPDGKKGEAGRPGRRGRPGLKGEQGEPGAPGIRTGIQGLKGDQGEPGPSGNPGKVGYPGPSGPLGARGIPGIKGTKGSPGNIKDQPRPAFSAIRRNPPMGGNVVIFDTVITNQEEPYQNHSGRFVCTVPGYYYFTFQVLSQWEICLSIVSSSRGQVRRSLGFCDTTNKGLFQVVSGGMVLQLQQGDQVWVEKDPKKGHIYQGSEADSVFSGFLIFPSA

Sequence of C1r enzyme (activated form of human C1r) (human) (P00736 18-463, chain 1 of 2): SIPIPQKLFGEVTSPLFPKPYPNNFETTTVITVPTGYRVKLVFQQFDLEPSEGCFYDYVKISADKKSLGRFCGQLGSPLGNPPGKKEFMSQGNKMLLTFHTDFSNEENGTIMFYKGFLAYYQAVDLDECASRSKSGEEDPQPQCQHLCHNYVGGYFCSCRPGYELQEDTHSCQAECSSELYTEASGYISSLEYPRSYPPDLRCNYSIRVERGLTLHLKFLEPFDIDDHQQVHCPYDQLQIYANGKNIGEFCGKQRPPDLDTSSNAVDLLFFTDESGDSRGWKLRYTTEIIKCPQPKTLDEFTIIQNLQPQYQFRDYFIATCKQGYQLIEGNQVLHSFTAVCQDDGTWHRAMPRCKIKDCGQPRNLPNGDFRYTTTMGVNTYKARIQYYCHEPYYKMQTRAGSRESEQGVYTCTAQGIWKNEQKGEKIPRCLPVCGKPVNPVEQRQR
Sequence of C1r enzyme (activated form of human C1r) (human) (P00736 464-705, chain 2 of 2): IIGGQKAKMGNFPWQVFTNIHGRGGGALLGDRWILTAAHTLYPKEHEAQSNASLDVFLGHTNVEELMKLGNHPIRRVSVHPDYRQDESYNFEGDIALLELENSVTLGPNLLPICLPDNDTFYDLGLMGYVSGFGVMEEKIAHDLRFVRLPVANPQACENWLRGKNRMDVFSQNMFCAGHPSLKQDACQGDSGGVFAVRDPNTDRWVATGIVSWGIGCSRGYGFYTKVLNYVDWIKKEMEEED
Sequence of C1s enzyme (activated form of human C1s) (human) (P09871 16-437, chain 1 of 2): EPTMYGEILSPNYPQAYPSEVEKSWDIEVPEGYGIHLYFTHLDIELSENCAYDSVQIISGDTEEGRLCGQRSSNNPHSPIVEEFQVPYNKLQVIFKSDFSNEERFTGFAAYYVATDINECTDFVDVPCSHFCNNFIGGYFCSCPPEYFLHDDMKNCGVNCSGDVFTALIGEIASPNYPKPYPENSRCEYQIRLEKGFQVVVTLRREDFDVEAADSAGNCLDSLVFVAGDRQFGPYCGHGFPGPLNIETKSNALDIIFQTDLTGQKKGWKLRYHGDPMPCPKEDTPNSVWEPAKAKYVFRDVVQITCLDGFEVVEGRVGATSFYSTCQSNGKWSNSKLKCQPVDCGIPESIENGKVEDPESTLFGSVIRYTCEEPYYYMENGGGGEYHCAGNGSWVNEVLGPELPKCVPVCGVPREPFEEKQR
Sequence of C1s enzyme (activated form of human C1s) (human) (P09871 438-688, chain 2 of 2): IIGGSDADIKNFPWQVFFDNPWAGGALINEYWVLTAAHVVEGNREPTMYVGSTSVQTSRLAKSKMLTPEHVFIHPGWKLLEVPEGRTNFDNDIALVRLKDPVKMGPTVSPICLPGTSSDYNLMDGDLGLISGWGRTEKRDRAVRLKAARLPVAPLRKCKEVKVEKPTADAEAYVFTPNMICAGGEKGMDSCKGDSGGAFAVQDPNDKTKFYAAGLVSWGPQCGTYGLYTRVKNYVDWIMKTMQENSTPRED
Sequence of human C1 complex (C1qC1r2C1s2) (P02746 whole entry, looked up): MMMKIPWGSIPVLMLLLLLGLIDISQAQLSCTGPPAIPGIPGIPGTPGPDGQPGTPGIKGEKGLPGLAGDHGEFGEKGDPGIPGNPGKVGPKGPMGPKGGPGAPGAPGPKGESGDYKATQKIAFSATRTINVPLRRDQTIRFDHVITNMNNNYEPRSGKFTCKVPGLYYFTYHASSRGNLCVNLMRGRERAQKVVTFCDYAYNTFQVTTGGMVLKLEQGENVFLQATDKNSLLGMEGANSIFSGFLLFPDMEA
Sequence of human C1 complex (C1qC1r2C1s2) (P02747 whole entry, looked up): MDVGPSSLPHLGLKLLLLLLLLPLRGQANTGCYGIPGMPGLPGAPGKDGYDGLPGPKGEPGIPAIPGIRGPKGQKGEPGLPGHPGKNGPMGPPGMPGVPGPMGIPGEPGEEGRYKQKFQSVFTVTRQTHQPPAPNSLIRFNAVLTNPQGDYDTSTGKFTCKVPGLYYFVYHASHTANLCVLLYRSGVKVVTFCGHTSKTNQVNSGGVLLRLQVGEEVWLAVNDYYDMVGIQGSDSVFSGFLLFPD
Sequence of human C1 complex (C1qC1r2C1s2) (P02745 whole entry, looked up): as the sequence (P02745 whole entry, looked up, one chain of several) above

Broadly, the Kd is a measure of binding affinity in units of concentration. A lower Kd goes with tighter binding. In the case of C1s proenzyme (human), the dissociation constant Kd worked out at 170 nM in test [1] and 270 nM in test [2].
As to GST-ErpB (natural protein), the Kd in test [3] is 6.7 nM; in test [4] it was 41 nM; in test [5], 3.4 nM.
In the case of GST-ErpQ (natural protein), the Kd in test [3] was 4.7 nM; in test [4], 11 nM; in test [5] it was 3.8 nM.
Turning to “human C1 complex (C1qC1r2C1s2) (from UniProt P02745 23-245; P02746 28-253; P02747 29-245)”, the Kd in test [2] was found to be 5.6 nM.

These data come from publication doi:10.1101/2021.09.23.461563.
